Measured values as given in US20040170601A1, “Method of improving the growth performance of an animal” (priority 2001, published 2004).
Where “and” joins values, the source holds several entries; their conditions need not be identical. Identical values can stand only once. Entries after “also recorded” stand apart in the source; their conditions may differ.

Assays:
[1] = Example 8: growth performance of pigs administered IL-3 in a commercial piggery; type: in vivo
Method: This trial evaluated the capacity of IL-3 to improve growth performance and immunity of pigs by comparing the growth rate and health of weaner pigs (28 day old weaners is Day 0 of the trial and the weaner period continued for 42 days) through to the finisher stage (Days 93 to 113) and slaughter (133 days after commencing the trial), which were administered with the recombinant porcine cytokine, IL-3, and saline was used as a control, with and without standard weaner medicated water and feed in a commercial piggery environment.
40 pigs per treatment were mixed in groups, with 4 replicates containing standard medicated water and feed and 4 replicates without medicated feed or water.
Overall weights for each group at the start of the experiment were equivalent. All pigs at the start of the trial (Day 0) were 28 day old male weaners.
IL-3 was provided in saline to inject 1 ml/pig.
Weights were measured at start, throughout the experiment and at the end of experiment. The trial continued for 133 days after the commencement ie. final weights were determined and animals slaughtered 133 days after the start of the weaning period. Weaning Days 0-42, Grower period Days 42-93, Finisher period Days 93-133. Treatments were administered during the weaner period only.
Blood and sera samples collected at start (before treatments) and end of the weaner period. Blood and sera were taken prior to injecting samples.
Recombinant porcine IL-3 was expressed in E. coli and purified using a polyHis tag system as described in Example 4. IL-3 was tested for biological activity in a bioassay prior to the start of the experiment.

[2] = tested on: eosinophils; assay: Example 10: porcine IL-3 on cell populations over a longer duration; type: in vivo, pigs; details: 100 μg IL-3 twice weekly for 2 weeks, followed to day 57
Method: This trial compared the effects of recombinant porcine IL-3 protein on eosinophil numbers in the blood of pigs over 8 weeks.
(§1) The experiment was conducted using medicated feed (Barastoc EziWean 150 then Bunge Grolean) ad libitum in an experimental environment (PC2 containment facilities).
Injections were administered intramuscularly in the hind leg. Pigs were 5 weeks of age at commencement of trial. Blood samples were taken for haematology on days 0 (prior to injection), 1, 2, 3, 4, 7, 8, 10, 11, 15, 22, 29, and 57. Full haematology analysis was performed, using the Abbott Cell-Dyn 3700. Examination of selected smears was done for confirmation.

[3] = tested on: eosinophils; assay: Example 11: IL-5 and IL-3 on eosinophil production; type: in vivo, pigs; details: single cytokine 100 μg IM days 0, 3, 7, 10
Text: The aim of this example was to determine if the effects of IL-3 and IL-5 act synergistically to increase eosinophil levels and antibody production.
As IL-3 stimulates the proliferation of pre-active B cells prior to the effects of IL-5, it was believed that administration of both IL-3 and IL-5 would have a greater impact on eosinophil production than the administration of either cytokine alone. An experiment was undertaken using pigs raised under clean PC2 conditions with raised floors. There were 5 treatments with 6 pigs per treatment. Pigs were 5-6 weeks of age. The animals were injected intramuscularly on days 0, 3, 7 and 10 of the experiment with either recombinant cytokines or saline. The treatments include IL-5 and IL-3 alone and given either together at the same time at different sites or to the same animal but with IL-3 being administered one week before IL-5. The treatments were as follows:
Group 3—100 μg IL-3+100 μg IL-5 (separate sites)
The pigs were bled 4 times per week for the first 2 weeks and once per week for the following 2 weeks and haematology measured using a CellDyn machine. Sera were collected also each week and tested for antibody levels.

[4] = tested on: cell populations in the blood; assay: Example 9: porcine IL-3 on blood cell populations; type: in vivo, pigs
Method: This trial examined the effect of administering recombinant porcine IL-3 protein on cell populations in the blood of pigs.
as §1
Injections were administered intramuscularly in the hind leg. Pigs were 9 weeks of age at commencement of trial.
Blood samples were taken for haematology on days 0, 1, 2, 3, 4, 7, 9, 11, 15 and 17. Full haematology analysis was performed, using the Abbott Cell-Dyn 3700 and examination of selected smears were done for confirmation.

[5] = tested on: TNFα; assay: Example 12: TNFα in serum after App challenge (bioassay, L929 target cells); type: in vivo, pigs; details: day 13 after challenge
Method: (§2) Due to the intermittent availability of Actinobacillus pleuropneumoniae (App), the App challenge was performed separately on the 2 rooms, resulting in different time schedules for each room, as outlined in Table 9. Prior to each challenge, pigs were treated with recombinant cytokines, flunix or plasmids as described above; the timing of treatments with respect to challenge is described in Table 9. Pigs were anaesthetised and infected intratracheally with 7.5×10^5 […] on day 0.
(§3) […] Blood was assayed for immunological parameters as previously described.
(§4) Briefly, assays were performed on blood samples using standard techniques, including: white blood cell counts performed using an automated cell counter; differential cell counts performed manually on stained blood smears; lymphocyte subset enumeration via flow cytometry; neutrophil function determined by flow cytometry; lymphocyte proliferation determined using a thymidine incorporation assay in response to mitogens; total IgG and IgA levels were identified using indirect sandwich ELISA; levels of mRNA for pro-inflammatory cytokines was detected by RT-PCR. TNF levels were additionally measured in serum by bioassay using L929 target cells. Pigs were weighed weekly from delivery of plasmids and for 2 weeks after challenge.

[6] = tested on: IL-6; assay: Example 12: IL-6 in peripheral blood by RT-PCR after App challenge; type: in vivo, pigs; details: day 13 after challenge
Method: as §2, §3, §4

[7] = tested on: Actinobacillus pleuropneumoniae; assay: Example 12: Actinobacillus pleuropneumoniae (App) challenge: growth, clinical signs, lung pathology; type: in vivo, pigs
Text: The following experiment was designed to determine whether IL-4 could improve the growth of immunologically challenged pigs compared to saline treated controls and positive controls treated with the non-steroidal anti-inflammatory drug (NSAID) Flunix. It was also devised to determine whether IL-4 could be delivered via plasmids.
Male pigs, with a mean starting weight of 52 kg, were allocated to 5 treatment groups (Table 8). Pigs were housed in group pens, with each pen containing a replicate from each of the treatment groups. Pigs were provided with pelleted feed and water ad libitum.
Recombinant IL-4 and saline were administered as 2 ml doses, given subcutaneously behind the ear. Plasmids were administered in 1 ml doses, given intramuscularly in the hind-leg. Flunix was administered as a 2 ml dose according to the manufacturer's instructions, and delivered intramuscularly in the neck. The timetable of administration is outlined in Table 9 below.
as §2, §4
IL-4 delivered as a recombinant caused a reduction of 36% in the presence of clinical symptoms compared to pigs treated with saline, while IL-4 delivered in plasmid form produced a reduction of 62% compared to saline-treated controls (45% reduction compared to plasmid-treated controls).
At the conclusion of the trial, pigs were euthanased and the lungs removed for post-mortem examination. Lungs were scored for pleurisy from 0-5 (FIG. 79) and the degree of pleuropneumonia was determined by weighing affected lung and expressed as a percentage of total lung weight (FIG. 80).

[8] = tested on: Brachyspira (Serpulina) hyodysenteriae; assay: Example 13: swine dysentery challenge, IL-4 prophylactic; type: in vivo, pigs
Text: The aim of this example was to determine whether IL-4 could improve the health of pigs infected with an enteric inflammatory pathogen causing swine dysentery, Brachyspira (Serpulina) hyodysenteriae. A further aim was to determine whether IL-4 could improve the growth rate of pigs under conditions of challenge with swine dysentery.
Male pigs with a mean starting weight of 6.5 kg, were allocated to treatment groups consisting of eight pigs (Table 10). Pigs were housed in group pens, with each pen containing a replicate from each of the treatment groups. One group of 8 pigs was housed in a separate room and left uninfected to act as untreated controls. Pigs were provided with pelleted feed and water ad libitum.
Prior to swine dysentery challenge, pigs were treated with recombinant IL-4 or saline, as described in Table 10. Cytokines and the antibiotic, Lincocin, were delivered by intramuscular injection at intervals outlined in Table 11. Pigs were infected with Brachyspira hyodysenteriae at day 0, day 1 and day 2, given as an oral bolus of 120ml of spirochaete culture in log phase of growth, containing approximately […] cells.
Faecal swabs and blood samples were taken from each pig at intervals described in Table 11. Faecal swabs were cultured for the presence of spirochaetes. Blood samples were assayed for immunological parameters as described in example 1 above. Pigs were weighed at weekly intervals throughout the experiment, which was terminated by euthanasia on days 19 and 20 after the initial challenge. At post mortem swabs from areas of the hindgut were cultured for the presence of spirochaetes, and the gross pathological condition of the gastro-intestinal tissue noted.

[9] = day 7 prior to challenge to slaughter at days 19 and 20

interleukin 3 [IL-3]
average warm carcass weight at slaughter above respective saline control ([1]; medicated): approximately 4 kg/pig
average weights during the trial ([1]; medicated): consistently showed higher average weights than all other groups
final average weight higher than saline medicated control ([1]; medicated): over 3.5 kg
increase in total weight of all pigs compared to saline medicated group ([1]; medicated): approximately 10%
individual weight range ([1]; medicated): more consistent weight range than other groups
rate of gain during the weaner period ([1]; medicated and un-medicated): increased the rate of gain over the medicated and un-medicated saline controls
FCR (food conversion ratio) ([1]; medicated, finisher stage): 2.52
% dressing ([1]; un-medicated): substantially higher % dressing than the respective un-medicated saline control
average warm carcass weight at slaughter above respective saline control ([1]; un-medicated): ~2 kg/pig
absolute numbers of eosinophils in peripheral blood [2]: statistically significant increase in eosinophils
eosinophils as a percent of white blood cells [3]: did not significantly increase the percentage of eosinophils; also recorded: minor increases in comparison
absolute eosinophils in blood ([4]; 100 μg IL-3 daily for 5 days): increase in eosinophils
absolute eosinophils in blood ([4]; 500 μg IL-3 single dose on day 0): smaller increases
basophil numbers ([4]; pig, in vivo): increase in basophil numbers
eosinophil index (area under the curves) ([4]; pig, in vivo): although there was a biological trend it was not statistically significant

B1: interleukin 4 (protein, UniProt Q04745 25-133, looked up)
Interleukin-4: HKCDITLQEIIKTLNILTARKNSCMELPVTDVFAAPENTTEKETFCRASTVLRHIYRHHTCMKSLLSGLDRNLSSMANMTCSVHEAKKSTLKDFLERLKTIMKEKYSKC
notes: recombinant IL-4 protein
TNFα production (serum) [5]: reduced levels of TNF production
production of IL-6 [6]: undetectable levels
reduction in the presence of clinical symptoms compared to saline ([7]; 30 visits in first week of challenge): 36%
heavier than saline treated peers at the termination of the experiment ([7]; after 2 weeks of challenge): 4.8 kg
improvement in growth vs saline ([7]; after 2 weeks of challenge): 73%
clinical signs of disease ([7]; first week of challenge): slightly reduced clinical signs of disease compared to saline-treated controls
growth during the (first) week of App challenge ([7]; pig, in vivo): positive growth during the week of challenge
growth in the second week of challenge ([7]; pig, in vivo): continued to gain weight
pleurisy at necropsy (score 0-5) ([7]; pig, in vivo): same level of pleurisy as saline-treated controls
weight gain over the 2 week period following challenge with App ([7]; pig, in vivo): increased weight gain compared to saline-treated controls, although this result was not statistically significant
percentage of lung affected by App lesions ([7]; vs saline-treated controls): greatly reduced
spirochaete shedding in faeces (faecal culture) ([8]; after challenge): decreasing levels of spirochaete shedding by day 14 after challenge
reduction in the number of spirochaetes compared to saline treated pigs ([8]; anterior colon): 93%
gross pathology associated with dysentery ([8]; anterior colon, post mortem): reduced the signs of pathology associated with dysentery, and the severity of the pathology compared to saline in the anterior colon
reduction in the number of spirochaetes compared to saline treated pigs ([8]; caecum): 91%
improvement in gain compared to saline or antibiotic treatment [8, 9]: 24%
total weight gained over the challenge period [8, 9]: 8.5 kg
improvement in end weight vs saline treated pigs ([8]; days 19 and 20): 11% and 12%
mean weight at the end of the trial ([8]; days 19 and 20 after infection): 15.1 kg
reduction in the number of spirochaetes compared to saline treated pigs ([8]; faecal): 86%
heavier than pigs treated with Lincocin at the end of the trial ([8]; pig, in vivo): 15%
number of spirochaetes cultured from the hindgut at post mortem ([8]; pig, in vivo): significantly reduced the number of spirochaetes residing in the gut compared to saline controls; also recorded: performed as well as the Lincocin antibiotic treatment in reducing the number of spirochaetes in the caecum and colon
variability of weight ([8]; pig, in vivo): reduce variability by increasing the weight gained by smaller pigs
incidence of clinical signs in faeces (of 8 pigs) ([8]; post mortem): 3 pigs
pigs showing bloody and mucoid faeces (of 8 pigs) ([8]; post mortem): 1 pig
reduction in the number of spirochaetes compared to saline treated pigs ([8]; posterior colon): 84%
gross pathology associated with dysentery ([8]; posterior colon, post mortem): completely prevented the development of pathology in the posterior colon
